Data on 1 substance can be found in publication PMC5583966, “Sustained-release study on Exenatide loaded into mesoporous silica nanoparticles: in vitro characterization and in vivo evaluation” (DARU Journal of Pharmaceutical Sciences, 2017).

Data set [1] can be described thus: Pharmacokinetics study after s.c. injection in SD rats. The data set is classed as in vivo. The protocol: Pharmacokinetic studies of EXT-Sol and EXT-SBA-15 were conducted in healthy male SD rats. Sixteen rats were randomly divided into two groups (n = 8) and fasted overnight with free access to water before administration. SD rats were received s.c. administration of EXT-Sol and EXT-SBA-15 at a single EXT dose of 50 μg/kg, respectively. The blood samples (0.5 mL) of EXT-Sol treatment group were collected from the rat’s orbit and at specific time 0, 0.25, 0.5, 1, 1.5, 2, 3, 4, 6, 8 h after injection. The blood samples (0.5 mL) of EXT-SBA-15 treatment group (0.5 mL) were collected at 0, 0.5, 1, 1.5, 2, 3, 5, 8, 12, 24, 36, 48, 72, 120 h. The collected blood samples were centrifuged at 503×g for 10 min to obtain the plasma, which were stored at −80 °C for further analysis. The plasma concentrations of EXT were measured by Exendin-4 ELISA kit according to the instructions supplied by the manufacturer. The relevant pharmacokinetic parameters were analyzed by PKSolver 2.0 [25].

In data set [2] the test system is STZ-induced type 2 diabetic ICR mice (blood glucose). The data set can be described thus: In vivo pharmacodynamics study: blood glucose of STZ-induced type 2 diabetic mice. To be noted: s.c., EXT 3 μg/kg/d twice daily, days 0-25, measured before administration, n = 6. The protocol:
Type 2 diabetes model was induced by STZ with multiple injection method into ICR mice. Each mouse was injected intraperitoneally with 30 mg/kg⋅d STZ in 0.1 mol/L citric acid buffer (pH 5.0). One week after the injection, mice were fasted for 12 h (with free access to water) before their blood glucose was measured by glucometer (Accu-Chek Performa, Germany). Diabetic mice were considered by fasting blood glucose above 11.1 mmol/L. Six healthy normal ICR mice were used as the blank control group (A). Twenty-four mice that had developed type 2 diabetes were randomly divided into four experimental groups and received s.c. administration of saline (B), EXT-Sol (C), EXT-SBA-15 (D) and SBA-15 (E), respectively. Group A and B received saline twice daily via s.c. administration. Group C received EXT-Sol twice daily with a dose of EXT (3 μg/kg/d). Group D and E were administrated a single injection of EXT-SBA-15 (600 μg/kg) and SBA-15 via s.c. administration, respectively. The blood sample (about 0.2 ml) was collected from the tail-vein on days 0, 1, 5, 10, 15, 20, 25 for all groups, and blood glucose levels were determined measured simultaneously with a glucometer before administration.

Setting [3] is: single EXT dose 50 μg/kg, plasma, Exendin-4 ELISA, Mean ± SD, n = 8.
Where [4] appears, read: single EXT dose 50 μg/kg, plasma, Exendin-4 ELISA, two-compartment model, Mean ± SD, n = 8.

Consider “EXT-Sol: Exenatide (EXT) solution, injected s.c. as comparator”, for which, in data set [1] (EXT dose 50 μg/kg), the “time at which plasma concentration had decreased to baseline” value is listed as 8 h. Also, in data set [1] (setting [3]), the AUC0→t was 1.71 ± 0.07 ng⋅ml^−1⋅h, the “AUC0→∞” value is reported as 1.71 ± 0.07 ng⋅ml^−1⋅h, the “MRT mean residence time” value was 68.4 ± 4.2 min and the “c max peak concentration” value is on record as 1.16 ± 0.09 ng⋅ml^−1. In addition, in data set [1] (setting [4]), the “t 1/2(α) half-life of distribution” value turned out to be 13.2 ± 1.8 min and the “t 1/2(β) half-life of elimination” value was 36 ± 4.8 min. The “long-term glucose lowering effect, up to 25 days” value in data set [2] is recorded as “not observed”.
